Measurements from patent US20090233982.
Where two headings read alike, the source gives them in different places.

How the values were obtained:
Dnmt1 (Mus musculus) = details: 14C-SAM incorporation; as efficient as Misu
[1] = biological target: Misu (full length, mouse) (Mus musculus) (UniProt Q1HFZ0); details: 14C-SAM incorporation, 37 C 1 h
[2] = biological target: Misu (full length, mouse) (Mus musculus) (UniProt Q1HFZ0); details: 14C-SAM incorporation, 37 C 1 h, DNase treated; about two fold without DNase

Misu (full length, mouse) (Mus musculus), sequence (Q1HFZ0 whole entry): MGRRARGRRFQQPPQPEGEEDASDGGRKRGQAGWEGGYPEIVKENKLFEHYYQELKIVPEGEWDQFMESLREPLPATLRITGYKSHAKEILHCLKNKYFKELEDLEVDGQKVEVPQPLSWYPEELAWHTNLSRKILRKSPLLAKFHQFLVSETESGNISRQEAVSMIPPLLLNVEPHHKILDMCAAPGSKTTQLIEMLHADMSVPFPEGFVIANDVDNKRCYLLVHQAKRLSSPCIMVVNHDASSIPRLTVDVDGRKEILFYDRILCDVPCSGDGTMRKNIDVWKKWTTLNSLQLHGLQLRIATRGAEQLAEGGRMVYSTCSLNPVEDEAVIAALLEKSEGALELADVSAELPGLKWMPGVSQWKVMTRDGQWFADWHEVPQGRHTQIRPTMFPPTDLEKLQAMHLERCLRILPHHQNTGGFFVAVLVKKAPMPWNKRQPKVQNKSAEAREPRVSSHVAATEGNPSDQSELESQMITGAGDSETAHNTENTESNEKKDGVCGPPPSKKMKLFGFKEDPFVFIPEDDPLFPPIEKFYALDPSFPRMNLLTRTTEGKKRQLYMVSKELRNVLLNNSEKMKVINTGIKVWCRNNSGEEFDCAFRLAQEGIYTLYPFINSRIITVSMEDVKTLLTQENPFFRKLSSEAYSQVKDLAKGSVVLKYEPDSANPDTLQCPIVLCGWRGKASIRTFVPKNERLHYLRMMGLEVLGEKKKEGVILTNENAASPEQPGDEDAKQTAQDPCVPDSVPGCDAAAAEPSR

Substance	activity (fold over control) (Dnmt1 (Mus musculus))	activity (fold over control) [1]	activity (fold over control) [2]	activity (fold over control) ([1]; 5mC on one strand (hemi-methylated), retained after RNase)
E. coli rRNA	2	2	–	–
E. coli tRNA	2	–	3	–
hemi-methylated double stranded oligonucleotide	–	–	–	2
